Read-outs that look alike come from different tables or passages of the source. Values belong to the binder of their own block, whether it stands above or below them.
Tests used:
[1] = target: T1, rabbit skeletal muscle actin, as filaments (rabbit, UniProt P68135 1-377); assay: co-sedimentation
[2] = target: T1, rabbit skeletal muscle actin, as …; assay: co-sedimentation; remark: listed apart in the source
[3] = target: T1, rabbit skeletal muscle actin, as …; assay: co-sedimentation; remark: listed apart in the source
[4] = target: T1, rabbit skeletal muscle actin, as …; assay: co-sedimentation; remark: listed apart in the source
AUC = target: the molecule itself; assay: AUC
[5] = target: T1, rabbit skeletal muscle actin, as …; assay: co-sedimentation; remark: listed apart in the source
[6] = target: T1, rabbit skeletal muscle actin, as …; assay: co-sedimentation; remark: listed apart in the source
[7] = target: T1, rabbit skeletal muscle actin, as …; assay: co-sedimentation; remark: listed apart in the source
[8] = target: T1, rabbit skeletal muscle actin, as …; assay: TIRF microscopy, fluorescence decay after washout
[9] = target: T1, rabbit skeletal muscle actin, as …; assay: TIRF microscopy, fluorescence decay after washout; remark: listed apart in the source
[10] = target: T1, rabbit skeletal muscle actin, as …; assay: TIRF microscopy, fluorescence decay after washout; remark: listed apart in the source
[11] = target: T1, rabbit skeletal muscle actin, as …; assay: TIRF microscopy, fluorescence decay after washout; remark: listed apart in the source
[12] = target: T1, rabbit skeletal muscle actin, as …; assay: TIRF microscopy, fluorescence decay after washout; remark: listed apart in the source
[13] = target: T1, rabbit skeletal muscle actin, as …; assay: TIRF microscopy, fluorescence decay after washout; remark: listed apart in the source
[14] = target: T1, rabbit skeletal muscle actin, as …; assay: TIRF microscopy, fluorescence decay after washout; remark: listed apart in the source
[15] = target: T1, rabbit skeletal muscle actin, as …; assay: TIRF microscopy, fluorescence decay after washout; remark: listed apart in the source
[16] = target: T1, rabbit skeletal muscle actin, as …; assay: TIRF microscopy, fluorescence decay after washout; remark: listed apart in the source
[17] = target: T1, rabbit skeletal muscle actin, as …; assay: TIRF microscopy, fluorescence decay after washout; remark: listed apart in the source
[18] = target: T1, rabbit skeletal muscle actin, as …; assay: TIRF microscopy, fluorescence decay after washout; remark: listed apart in the source
[19] = target: T1, rabbit skeletal muscle actin, as …; assay: TIRF microscopy, fluorescence decay after washout; remark: listed apart in the source
[20] = target: T1, rabbit skeletal muscle actin, as …; assay: TIRF microscopy, fluorescence decay after washout; remark: listed apart in the source

Kd [1]: 200 nM | Kd [2]: 600 nM | Kd [3]: 500 nM | Kd [4]: 400 nM | Kd [5]: 800 nM | Kd [6]: 1100 nM | Kd [7]: 2800 nM
B1: human Drp1 isoform 000 (dynamin-related protein-1), wild type (enzyme, UniProt O00429-4 1-699, looked up)
chain: MEALIPVINKLQDVFNTVGADIIQLPQIVVVGTQSSGKSSVLESLVGRDLLPRGTGIVTRRPLILQLVHVSQEDKRKTTGEENGVEAEEWGKFLHTKNKLYTDFDEIRQEIENETERISGNNKGVSPEPIHLKIFSPNVVNLTLVDLPGMTKVPVGDQPKDIELQIRELILRFISNPNSIILAVTAANTDMATSEALKISREVDPDGRRTLAVITKLDLMDAGTDAMDVLMGRVIPVKLGIIGVVNRSQLDINNKKSVTDSIRDEYAFLQKKYPSLANRNGTKYLARTLNRLLMHHIRDCLPELKTRINVLAAQYQSLLNSYGEPVDDKSATLLQLITKFATEYCNTIEGTAKYIETSELCGGARICYIFHETFGRTLESVDPLGGLNTIDILTAIRNATGPRPALFVPEVSFELLVKRQIKRLEEPSLRCVELVHEEMQRIIQHCSNYSTQELLRFPKLHDAIVEVVTCLLRKRLPVTNEMVHNLVAIELAYINTKHPDFADACGLMNNNIEEQRRNRLARELPSAVSRDKVASGGGGVGDGVQEPTTGNWRGMLKTSKAEELLAEEKSKPIPIMPASPQKGHAVNLLDVPVPVARKLSAREQRDCEVIERLIKSYFLIVRKNIQDSVPKAVMHFLVNHVKDTLQSELVGQLYKSSLLDDLLTESEDMAQRRKEAADMLKALQGASQIIAEIRETHLW
stoichiometry N (AUC): 4

t1/2 of dissociation [8]: 40 ± 20.3 s | t1/2 of dissociation [9]: 93.2 ± 94.5 s | t1/2 of dissociation [10]: 93.1 ± 88 s | t1/2 of dissociation [11]: 84.1 ± 93.6 s | t1/2 of dissociation [12]: 9.8 s | t1/2 of dissociation [13]: 26.9 ± 20.6 s | t1/2 of dissociation [14]: 5.4 ± 2 s | t1/2 of dissociation [15]: 16.5 ± 2.5 s | t1/2 of dissociation [16]: 8.1 ± 4.3 s | t1/2 of dissociation [17]: 9.9 ± 4.4 s | t1/2 of dissociation [18]: 115 ± 43.5 s | t1/2 of dissociation [19]: 4.1 ± 1.4 s | t1/2 of dissociation [20]: 48.7 ± 20.6 s
B2: GFP-Drp1 (human Drp1 isoform 000 with N-terminal GFP A206K) (enzyme)
chain: B1 chain

Reference: paper PMC5063618 (Molecular Biology of the Cell, 2016)
